Target: human PSMA (prostate-specific membrane antigen) expressed on LNCaP cells (human, UniProt Q04609 1-750)
Assay: cell-based or functional assay

Sequence of human PSMA (prostate-specific membrane antigen) expressed on LNCaP cells (Q04609 whole entry): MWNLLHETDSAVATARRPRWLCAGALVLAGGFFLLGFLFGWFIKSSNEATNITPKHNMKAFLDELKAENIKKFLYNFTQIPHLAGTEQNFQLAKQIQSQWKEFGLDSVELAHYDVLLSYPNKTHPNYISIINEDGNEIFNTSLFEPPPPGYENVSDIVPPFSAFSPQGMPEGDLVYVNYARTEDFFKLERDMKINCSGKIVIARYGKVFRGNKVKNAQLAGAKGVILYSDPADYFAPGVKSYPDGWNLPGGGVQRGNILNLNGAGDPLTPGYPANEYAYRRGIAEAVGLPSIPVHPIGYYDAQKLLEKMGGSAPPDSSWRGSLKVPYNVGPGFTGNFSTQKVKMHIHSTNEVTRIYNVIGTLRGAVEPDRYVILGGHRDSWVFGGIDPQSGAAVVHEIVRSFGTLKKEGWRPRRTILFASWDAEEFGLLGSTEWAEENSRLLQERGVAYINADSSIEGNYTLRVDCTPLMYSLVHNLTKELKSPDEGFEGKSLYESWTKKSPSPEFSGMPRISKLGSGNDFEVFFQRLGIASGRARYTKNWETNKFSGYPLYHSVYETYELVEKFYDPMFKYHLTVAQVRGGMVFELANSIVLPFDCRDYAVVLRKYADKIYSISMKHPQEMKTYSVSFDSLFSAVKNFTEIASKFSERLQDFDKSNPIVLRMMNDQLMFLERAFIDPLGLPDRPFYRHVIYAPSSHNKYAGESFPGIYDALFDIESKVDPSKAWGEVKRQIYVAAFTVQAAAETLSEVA

B1: PSMA 타겟 항체-약물 접합체 (PSMA target antibody-MMAE conjugate) (other, DAR 8.36)
VH: EVQLQQSGPELVKPGASVKISCKASGYAFSSSWMNWVKQRPGQGLEWIGRIYPADGDTNYNGKFKGKATLTADKSSSTAYMQLSSLTSVDSAVYFCARCGWDGGVYYAMDYWGQGTSVTVSS
VL: DIVMTQSPASLAVSLGQRATISCRASKSVTTSGYSYMHWYQQKPGQPPKLLIYLASNLESGVPARFSGSGSGTDFTLNIHPVEEEDAATYYCQHSRELPRTFGGGTKLEIK
modifications: MMAE conjugated through a VC-PAB linker (antibody MMAE Conjugation Kit), DAR 8.36; sites not stated
- cytotoxicity on LNCaP cells (Cell counting kit-8, 72 h), IC50: 0.5 nM

Source: KR20230078152A (dated 2023)
